Biological target: HIF2α protein
Test: cell-based or functional assay

expression and transcriptional activity of HIF2α: 2 fold
Substance: Int6-ΔC (mutant in which the Int6 PINT (PCI) domain has been deleted)
